The Kd is the equilibrium constant for the complex coming apart. What is called koff is the rate constant with which the complex falls apart. In general, kon refers to a measure of how fast the partners come together.

The text below walks through data of patent US20220118089A1 (UNIVERSITY OF CHICAGO, published 2022).

Test [1] concerns the target human type III collagen (Millipore Sigma) (human) (UniProt P02461). Kind of test: ELISA on plates coated with collagen III, 0-740 nM A3-IL4. In general terms: In an ELISA, binding on a coated surface is turned into a signal by an enzyme label.
Test [2] deals with recombinant mouse IL-4Ra protein (R&D Systems) (mouse) (UniProt P16382). Put plainly: ELISA on plates coated with recombinant mouse IL-4Ra (10 µg/mL), 0-740 nM A3-IL4, detected with an antibody against mouse IL-4, A450; Kd from the fitted curve [B].
Sequence of recombinant mouse IL-4Ra protein (R&D Systems) (mouse) (P16382 26-233 limits assumed): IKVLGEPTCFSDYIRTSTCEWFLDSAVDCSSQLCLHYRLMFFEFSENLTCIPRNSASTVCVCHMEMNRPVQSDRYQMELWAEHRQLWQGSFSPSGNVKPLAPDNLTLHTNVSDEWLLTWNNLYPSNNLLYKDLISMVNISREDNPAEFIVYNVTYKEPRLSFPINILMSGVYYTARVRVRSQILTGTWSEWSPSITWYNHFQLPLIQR
The target of test [3] is T1, recombinant mouse FcRn (Acro Biosystems) (mouse, UniProt Q61559 22-297; P01887 21-119).
T1 construct: also called neonatal Fc receptor; murine FcRn recombinant protein
T1 sequence (looked up) 1: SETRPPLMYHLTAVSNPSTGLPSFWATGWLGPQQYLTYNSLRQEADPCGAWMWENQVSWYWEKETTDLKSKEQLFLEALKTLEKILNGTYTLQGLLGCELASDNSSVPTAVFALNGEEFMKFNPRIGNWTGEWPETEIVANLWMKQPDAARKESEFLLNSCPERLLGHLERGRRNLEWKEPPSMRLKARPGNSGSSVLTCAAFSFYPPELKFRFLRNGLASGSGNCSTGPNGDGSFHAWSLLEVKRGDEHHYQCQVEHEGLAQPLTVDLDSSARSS
T1 sequence (looked up) 2: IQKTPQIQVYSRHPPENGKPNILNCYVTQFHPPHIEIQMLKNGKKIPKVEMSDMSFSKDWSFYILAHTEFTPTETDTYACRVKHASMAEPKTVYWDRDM
Put plainly: SPR (Biacore X100), mouse FcRn immobilised on a C1 chip, CBD-SA-IL-10 flowed at pH 5.8, 1:1 Langmuir fit. The procedure:
(§1) SPR measurements were carried out with Biacore X100 instrument. In collagen binding experiments, recombinant human type I or type III collagen (Millipore Sigma) were immobilized on a CMS sensor chip by standard amine coupling method (˜1500 resonance units (RUs)) and blocked with ethanolamine. […] In FcRn binding experiments, recombinant mouse FcRn (Acro Biosystems) was immobilized via amine coupling on a C1 chip (GE Healthcare) for ˜200 RU according to the manufacturer's instructions. […] The sensor chip was regenerated with PBS, pH 7.4 for every cycle.
(In general: Surface plasmon resonance follows binding to a sensor surface in real time, without labels.)

In test [4] the target is T2, human type I collagen (Millipore Sigma) (human, UniProt P02452 162-1218; P08123 80-1119).
T2 construct: treated as one molecule; also called collagen type I
T2 sequence (P02452 162-1218, chain 1 of 2): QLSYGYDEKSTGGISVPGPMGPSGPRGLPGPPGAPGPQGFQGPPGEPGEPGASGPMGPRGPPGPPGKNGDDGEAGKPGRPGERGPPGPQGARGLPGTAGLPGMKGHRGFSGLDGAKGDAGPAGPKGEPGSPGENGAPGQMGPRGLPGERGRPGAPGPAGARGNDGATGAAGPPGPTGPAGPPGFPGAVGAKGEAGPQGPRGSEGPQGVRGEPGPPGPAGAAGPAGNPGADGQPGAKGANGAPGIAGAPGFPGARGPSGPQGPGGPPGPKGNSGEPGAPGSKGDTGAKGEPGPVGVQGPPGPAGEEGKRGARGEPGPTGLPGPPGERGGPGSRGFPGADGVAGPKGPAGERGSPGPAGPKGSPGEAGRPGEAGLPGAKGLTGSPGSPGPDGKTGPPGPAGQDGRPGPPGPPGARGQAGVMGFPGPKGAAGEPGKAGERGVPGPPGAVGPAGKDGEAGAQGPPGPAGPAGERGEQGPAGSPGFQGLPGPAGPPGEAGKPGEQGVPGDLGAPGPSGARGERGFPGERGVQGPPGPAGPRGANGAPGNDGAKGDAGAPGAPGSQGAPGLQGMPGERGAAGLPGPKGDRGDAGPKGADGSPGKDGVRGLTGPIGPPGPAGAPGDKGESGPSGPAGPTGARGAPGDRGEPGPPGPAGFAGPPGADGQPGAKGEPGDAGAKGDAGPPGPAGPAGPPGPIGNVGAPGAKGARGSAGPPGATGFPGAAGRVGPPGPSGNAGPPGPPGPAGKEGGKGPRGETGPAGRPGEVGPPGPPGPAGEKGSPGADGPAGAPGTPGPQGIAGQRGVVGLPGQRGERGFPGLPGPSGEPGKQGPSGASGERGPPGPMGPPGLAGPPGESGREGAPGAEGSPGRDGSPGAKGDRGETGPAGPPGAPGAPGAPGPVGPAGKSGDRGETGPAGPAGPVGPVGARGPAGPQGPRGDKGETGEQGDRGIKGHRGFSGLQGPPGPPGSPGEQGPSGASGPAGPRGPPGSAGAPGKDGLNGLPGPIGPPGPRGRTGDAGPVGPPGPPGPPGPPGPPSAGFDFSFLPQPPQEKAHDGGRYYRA
T2 sequence (P08123 80-1119, chain 2 of 2): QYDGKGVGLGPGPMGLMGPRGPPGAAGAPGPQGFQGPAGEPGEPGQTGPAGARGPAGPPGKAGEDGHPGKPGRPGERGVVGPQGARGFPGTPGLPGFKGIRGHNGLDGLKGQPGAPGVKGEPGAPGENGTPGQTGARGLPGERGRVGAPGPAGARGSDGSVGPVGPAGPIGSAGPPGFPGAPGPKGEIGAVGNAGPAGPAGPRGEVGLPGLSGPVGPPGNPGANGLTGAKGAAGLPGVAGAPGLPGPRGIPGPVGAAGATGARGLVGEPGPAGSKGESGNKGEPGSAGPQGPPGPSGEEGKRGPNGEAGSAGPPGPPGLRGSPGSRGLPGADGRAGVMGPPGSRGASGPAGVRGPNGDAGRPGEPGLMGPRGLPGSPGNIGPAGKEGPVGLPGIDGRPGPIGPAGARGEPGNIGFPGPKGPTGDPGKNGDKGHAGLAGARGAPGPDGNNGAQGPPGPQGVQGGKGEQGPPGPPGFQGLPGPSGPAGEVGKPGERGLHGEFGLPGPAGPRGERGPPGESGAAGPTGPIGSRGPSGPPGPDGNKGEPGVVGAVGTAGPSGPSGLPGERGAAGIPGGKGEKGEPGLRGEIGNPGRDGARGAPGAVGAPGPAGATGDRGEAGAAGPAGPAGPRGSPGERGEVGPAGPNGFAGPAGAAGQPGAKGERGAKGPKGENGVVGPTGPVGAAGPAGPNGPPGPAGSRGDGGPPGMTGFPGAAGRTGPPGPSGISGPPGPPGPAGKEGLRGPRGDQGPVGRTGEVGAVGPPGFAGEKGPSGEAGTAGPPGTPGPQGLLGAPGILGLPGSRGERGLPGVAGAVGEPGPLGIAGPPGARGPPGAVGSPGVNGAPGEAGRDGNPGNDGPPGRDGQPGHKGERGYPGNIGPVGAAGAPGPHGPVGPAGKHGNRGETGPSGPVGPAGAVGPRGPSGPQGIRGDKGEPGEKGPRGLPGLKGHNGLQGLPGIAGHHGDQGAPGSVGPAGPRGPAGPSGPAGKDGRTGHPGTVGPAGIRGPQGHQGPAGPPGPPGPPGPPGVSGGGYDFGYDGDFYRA
Kind of test: SPR (Biacore X100), human type I collagen immobilised by amine coupling, CBD-SA-IL-10 flowed, 1:1 Langmuir fit. The procedure: as §1

The target in test [5] is T3, human type III collagen (Millipore Sigma) (human, UniProt P02461 154-1221).
T3 construct: treated as one molecule; also called collagen type III; collagen III
T3 sequence (looked up): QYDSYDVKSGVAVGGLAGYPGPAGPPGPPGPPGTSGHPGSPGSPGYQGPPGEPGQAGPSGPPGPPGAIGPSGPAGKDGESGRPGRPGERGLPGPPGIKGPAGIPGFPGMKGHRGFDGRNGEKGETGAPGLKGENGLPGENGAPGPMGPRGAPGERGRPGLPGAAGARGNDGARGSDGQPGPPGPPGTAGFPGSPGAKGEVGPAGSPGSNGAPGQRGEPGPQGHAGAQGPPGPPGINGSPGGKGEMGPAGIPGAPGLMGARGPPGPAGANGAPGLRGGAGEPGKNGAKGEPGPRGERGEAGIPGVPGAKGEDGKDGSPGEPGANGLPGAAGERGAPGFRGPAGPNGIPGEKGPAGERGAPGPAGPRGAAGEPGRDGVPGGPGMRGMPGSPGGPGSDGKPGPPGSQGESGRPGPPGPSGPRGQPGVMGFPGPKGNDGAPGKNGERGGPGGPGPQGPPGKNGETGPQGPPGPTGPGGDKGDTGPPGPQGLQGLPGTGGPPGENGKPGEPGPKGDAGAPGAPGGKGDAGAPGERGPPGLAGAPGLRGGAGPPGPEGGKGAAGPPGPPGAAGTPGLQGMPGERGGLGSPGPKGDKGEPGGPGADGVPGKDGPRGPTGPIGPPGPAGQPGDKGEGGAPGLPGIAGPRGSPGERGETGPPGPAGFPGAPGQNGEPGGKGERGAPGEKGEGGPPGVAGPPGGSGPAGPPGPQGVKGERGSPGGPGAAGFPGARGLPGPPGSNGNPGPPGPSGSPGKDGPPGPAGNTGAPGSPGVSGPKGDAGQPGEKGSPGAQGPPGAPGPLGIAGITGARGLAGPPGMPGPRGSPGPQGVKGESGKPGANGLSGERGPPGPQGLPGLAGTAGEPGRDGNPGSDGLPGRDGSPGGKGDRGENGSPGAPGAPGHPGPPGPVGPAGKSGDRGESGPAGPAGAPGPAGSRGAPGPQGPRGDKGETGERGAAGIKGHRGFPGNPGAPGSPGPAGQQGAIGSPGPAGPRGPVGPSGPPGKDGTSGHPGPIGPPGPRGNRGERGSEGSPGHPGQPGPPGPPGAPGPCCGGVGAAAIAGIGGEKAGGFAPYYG
Put plainly: SPR (Biacore X100), human type III collagen immobilised by amine coupling, CBD-SA-IL-10 flowed, 1:1 Langmuir fit. The procedure: as §1

Regarding “vWF A3 domain-fused IL-4 (human vWF A3 domain and mouse IL-4 fusion protein)”, the dissociation constant Kd amounted to 28.6 nM in test [1] and 100 nM in test [2].

B1: Human VWF A3 domain (CBD), mouse serum albumin and mouse IL-10 fusion protein (other)
chain: CSQPLDVVLLLDGSSSLPESSFDKMKSFAKAFISKANIGPHLTQVSVIQYGSINTIDVPWNVVQEKAHLQSLVDLMQQEGGPSQIGDALAFAVRYVTSQIHGARPGASKAVVIIIMDTSLDPVDTAADAARSNRVAVFPVGVGDRYDEAQLRILAGPGASSNVVKLQQVEDLSTMATLGNSFFHKLCSGFSGVGGGSGGGSEAHKSEIAHRYNDLGEQHFKGLVLIAFSQYLQKCSYDEHAKLVQEVTDFAKTCVADESAANCDKSLHTLFGDKLCAIPNLRENYGELADCCTKQEPERNECFLQHKDDNPSLPPFERPEAEAMCTSFKENPTTFMGHYLHEVARRHPYFYAPELLYYAEQYNEILTQCCAEADKESCLTPKLDGVKEKALVSSVRQRMKCSSMQKFGERAFKAWAVARLSQTFPNADFAEITKLATDLTKVNKECCHGDLLECADDRAELAKYMCENQATISSKLQTCCDKPLLKKAHCLSEVEHDTMPADLPAIAADFVEDQEVCKNYAEAKDVFLGTFLYEYSRRHPDYSVSLLLRLAKKYEATLEKCCAEANPPACYGTVLAEFQPLVEEPKNLVKTNCDLYEKLGEYGFQNAILVRYTQKAPQVSTPTLVEAARNLGRVGTKCCTLPEDQRLPCVEDYLSAILNRVCLLHEKTPVSEHVTKCCSGSLVERRPCFSALTVDETYVPKEFKAETFTFHSDICTLPEKEKQIKKQTALAELVKHKPKATAEQLKTVMDDFAQFLDTCCKAADKDTCFSTEGPNLVTRCKDALAGGGSGGGSSRGQYSREDNNCTHFPVGQSHMLLELRTAFSQVKTFFQTKDQLDNILLTDSLMQDFKGYLGCQALSEMIQFYLVEVMPQAEKHGPEIKEHLNSLGEKLKTLRMRLRRCHRFLPCENKSKAVEQVKSDFNKLQDQGVYKAMNEFDIFINCIEAYMMIKMKSHHHHHH
notes: also called CBD-SA-IL-10; CBD-SA-fused IL-10
Consider B1, for which, in test [3], the Kd is 1600 nM, the off-rate constant (koff) was determined as 0.0084 s⁻¹ and the kon stood at 5210 M⁻¹ s⁻¹. In test [4], binding was put at a Kd of 12.4 nM and the dissociation rate constant (koff) turned out to be 0.0034 s⁻¹. In test [5], this molecule yielded an equilibrium dissociation constant (Kd) of 8 nM and a koff of 0.0026 s⁻¹.
